pKd: −log10 of the molar value.
What was measured:
[1] = target: Env of HIV-1 strain TRO.11 (HIV-1); experiment: cell-based or functional assay
[2] = target: Env of HIV-1 strain Du172.17 (HIV-1); experiment: cell-based or functional assay
[3] = target: Env of HIV-1 strain AC10.0.29 (HIV-1); experiment: cell-based or functional assay
[4] = target: Env of HIV-1 strain CAP45.2.00.G3 (HIV-1); experiment: cell-based or functional assay
[5] = target: Env of HIV-1 strain SC422661.8 (HIV-1); experiment: cell-based or functional assay
[6] = target: Env of HIV-1 strain CAP210.2.00.E8 (HIV-1); experiment: cell-based or functional assay
[7] = target: HIV-1 strain CAP210.2.00.E8 envelope (gp120) (HIV-1); experiment: cell-based or functional assay
[8] = target: HIV-1 strain TRO.11 envelope (gp120) (HIV-1); experiment: cell-based or functional assay
[9] = target: HIV-1 strain Du172.17 envelope (gp120) (HIV-1); experiment: cell-based or functional assay
[10] = target: HIV-1 strain SC422661.8 envelope (gp120) (HIV-1); experiment: cell-based or functional assay
[11] = target: HIV-1 strain CAP45.2.00.G3 envelope (gp120) (HIV-1); experiment: cell-based or functional assay
[12] = target: HIV-1 strain AC10.0.29 envelope (gp120) (HIV-1); experiment: cell-based or functional assay
[13] = target: gp120 (ZM135M.PL10a) of the CD4-gp120 complex structure (HIV-1); experiment: CD4-gp120 complex structure, AreaIMol, 1.4 Å probe
[14] = target: 93TH057 gp120 core (HIV-1)
[15] = target: CAP244.2.00.D3 gp120 core (HIV-1)
[16] = target: Q259.d2.17 gp120 core (HIV-1)
[17] = target: HIV-1 Env of strain T257-31 (HIV-1); experiment: cell-based or functional assay
[18] = target: HIV-1 Env of strain QH0692.42 (HIV-1); experiment: cell-based or functional assay
[19] = target: HIV-1 Env of strain AC10.0.29 (HIV-1); experiment: cell-based or functional assay
[20] = target: HIV-1 Env of strain TRO.11 (HIV-1); experiment: cell-based or functional assay
[21] = target: HIV-1 Env of strain CAP45.2.00.G3 (HIV-1); experiment: cell-based or functional assay
[22] = target: HIV-1 Env of strain SC422661.8 (HIV-1); experiment: cell-based or functional assay
[23] = target: HIV-1 Env of strain ZM214M.PL15 (HIV-1); experiment: cell-based or functional assay
[24] = target: 93TH057 gp120 core (HIV-1); experiment: structure PDB 3NGB, AreaIMol, 1.4 Å probe
[25] = target: HIV-1 strain ZM214M.PL15 envelope (gp120) (HIV-1); experiment: cell-based or functional assay
[26] = target: HIV-1 strain T257-31 envelope (gp120) (HIV-1); experiment: cell-based or functional assay
[27] = target: HIV-1 Env of strain C2101.c01 (HIV-1); experiment: cell-based or functional assay
[28] = target: HIV-1 strain QH0692.42 envelope (gp120) (HIV-1); experiment: cell-based or functional assay
[29] = target: HIV-1 Env of strain 3016.v5.c45 (HIV-1); experiment: cell-based or functional assay

Sequence of NIH45-46 Fab (C-terminal 6x-His tagged heavy chain, SPR) (VH): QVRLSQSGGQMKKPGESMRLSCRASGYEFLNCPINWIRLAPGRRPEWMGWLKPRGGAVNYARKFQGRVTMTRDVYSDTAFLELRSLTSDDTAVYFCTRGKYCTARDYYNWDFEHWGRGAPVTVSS
Sequence of NIH45-46 Fab (C-terminal 6x-His tagged heavy chain, SPR) (V domain): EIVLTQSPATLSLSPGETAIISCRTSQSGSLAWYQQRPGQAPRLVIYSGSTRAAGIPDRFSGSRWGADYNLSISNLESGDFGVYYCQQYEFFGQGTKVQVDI

| Substance | IC50 [1] [µg/mL] | IC50 [2] [µg/mL] | IC50 [3] [µg/mL] | IC50 [4] [µg/mL] | IC50 [5] [µg/mL] | IC50 [6] [µg/mL] | also measured |
| --- | --- | --- | --- | --- | --- | --- | --- |
| 3BNC60 T54A (antibody) | 0.003 | > 50 | 2.6 | > 50 | 0.027 | 0.1 | – |
| 3BNC60 T54D (antibody) | 0.036 | > 50 | > 50 | > 50 | 0.556 | > 50 | – |
| 3BNC60 T54E (antibody) | 0.004 | > 50 | 2.92 | > 50 | 0.075 | > 50 | – |
| 3BNC60 T54F (antibody) | 0.023 | 2.2 | – | – | 0.025 | 3.4 | – |
| 3BNC60 T54G (antibody) | 0.0003 | 0.02 | 0.623 | > 50 | 0.01 | 11.9 | – |
| 3BNC60 T54H (antibody) | 0.011 | 0.055 | > 50 | 6.64 | 0.003 | 1.6 | – |
| 3BNC60 T54I (antibody) | 0.027 | 21.8 | > 50 | > 50 | 0.054 | > 50 | – |
| 3BNC60 T54K (antibody) | 0.029 | > 50 | > 50 | > 50 | 0.024 | > 50 | – |
| 3BNC60 T54L (antibody) | 0.019 | 3.59 | > 50 | > 50 | 0.034 | 30.7 | – |
| 3BNC60 T54M (antibody) | 0.019 | 1.43 | > 50 | > 50 | 0.032 | 25 | – |
| 3BNC60 T54N (antibody) | 0.008 | 0.662 | > 50 | 16.7 | 0.025 | 16.3 | – |
| 3BNC60 T54P (antibody) | 0.048 | > 50 | > 50 | > 50 | 0.143 | > 50 | – |
| 3BNC60 T54Q (antibody) | 0.006 | 0.243 | 9.04 | 6.66 | 0.038 | 7.4 | – |
| 3BNC60 T54R (antibody) | 0.006 | 2.15 | > 50 | > 50 | 0.014 | 5 | – |
| 3BNC60 T54S (antibody) | 0.02 | 0.92 | > 50 | 41.7 | 0.036 | 14.7 | – |
| 3BNC60 T54V (antibody) | 0.024 | 7.36 | > 50 | > 50 | 0.039 | 42.8 | – |
| 3BNC60 T54W (antibody) | 0.021 | 2.2 | – | – | 0.031 | 2.6 | – |
| 3BNC60 T54W IgG (antibody) | – | – | – | – | – | – | neutralization IC50 [7]: 5 µg/mL; neutralization IC50 [8]: 0.06 µg/mL; neutralization IC50 [9]: 0.04 µg/mL; neutralization IC50 [10]: 0.1 µg/mL; neutralization IC50 [11]: 19 µg/mL; neutralization IC50 [12]: 3.1 µg/mL |
| 3BNC60 T54Y (antibody) | 0.012 | 2.2 | – | – | 0.02 | 2.9 | – |
| 3BNC117 T54W IgG (antibody) | – | – | – | – | – | – | neutralization IC50 [7]: 2.8 µg/mL; neutralization IC50 [8]: 0.6 µg/mL; neutralization IC50 [9]: 0.9 µg/mL; neutralization IC50 [10]: 0.07 µg/mL; neutralization IC50 [11]: 23 µg/mL; neutralization IC50 [12]: 2.8 µg/mL |
| CD4 (from UniProt P01730 26-208) (receptor) | – | – | – | – | – | – | buried surface area on gp120, Inner domain & bridging sheet [13]: 400 Å^2; buried surface area on gp120, Loop D + NAG [13]: 136 Å^2; buried surface area on gp120, Outer domain exit loop [13]: 97 Å^2; buried surface area on gp120, V5 [13]: 155 Å^2; buried surface area on gp120, β-15/α-3 + NAG [13]: 263 Å^2; buried surface area on gp120, β-24 [13]: 14 Å^2; buried surface area, Interface on Fab or CD4 [13]: 1060 Å^2; buried surface area, Total gp120 [13]: 973 Å^2 |
| NIH45-46 Fab (C-terminal 6x-His tagged heavy chain, SPR) | – | – | – | – | – | – | pKd [14]: 6.80; koff [14]: 0.0048 s⁻¹; kon [14]: 31000 M⁻¹ s⁻¹; pKd [15]: 7.01; koff [15]: 0.0067 s⁻¹; kon [15]: 69000 M⁻¹ s⁻¹; pKd [16]: 6.72; koff [16]: 0.01 s⁻¹; kon [16]: 55000 M⁻¹ s⁻¹ |
| NIH45-46 Y99dA IgG (antibody) | – | – | – | – | – | – | neutralization IC50 [17]: 2.4 µg/mL; neutralization IC50 [18]: 2.1 µg/mL; neutralization IC50 [19]: 4.4 µg/mL; neutralization IC50 [20]: > 50 µg/mL; neutralization IC50 [21]: > 50 µg/mL; neutralization IC50 [22]: 0.08 µg/mL; neutralization IC50 [23]: 1.1 µg/mL |
| VRC01 Fab (structure of VRC01-93TH057, PDB code 3NGB) | – | – | – | – | – | – | buried surface area on gp120, Inner domain & bridging sheet [24]: 157 Å^2; buried surface area on gp120, Loop D + NAG [24]: 433 Å^2; buried surface area on gp120, Outer domain exit loop [24]: 57 Å^2; buried surface area on gp120, V5 [24]: 328 Å^2; buried surface area on gp120, β-15/α-3 + NAG [24]: 208 Å^2; buried surface area on gp120, β-24 [24]: 43 Å^2; buried surface area, Interface on Fab or CD4 [24]: 1210 Å^2; buried surface area, Total gp120 [24]: 1220 Å^2; total buried surface area, light chain with gp120 [24]: 681 Å^2; buried surface area, CDR3 ([24]; VRC01 heavy chain): 117 Å^2; buried surface area, Interface on gp120 ([24]; VRC01 heavy chain): 882 Å^2; buried surface area, Total Fab ([24]; VRC01 heavy chain): 892 Å^2; buried surface area, CDR3 ([24]; VRC01 light chain): 165 Å^2; buried surface area, Interface on gp120 ([24]; VRC01 light chain): 367 Å^2; buried surface area, Total Fab ([24]; VRC01 light chain): 314 Å^2 |
| VRC01 IgG (antibody) | – | – | – | – | – | – | neutralization IC50 [8]: 0.5 µg/mL; neutralization IC50 [25]: 0.8 µg/mL; neutralization IC50 [10]: 0.2 µg/mL; neutralization IC50 [26]: 1 µg/mL; neutralization IC50 [27]: 0.36 µg/mL; neutralization IC50 [11]: 1.8 µg/mL; neutralization IC50 [12]: 0.8 µg/mL; neutralization IC50 [28]: 0.7 µg/mL; neutralization IC50 [29]: 0.16 µg/mL |
| VRC01 heavy chain paired with the NIH45-46 light chain (IgG) (antibody) | – | – | – | – | – | – | neutralization IC50 [8]: 24 µg/mL; neutralization IC50 [25]: 1.8 µg/mL; neutralization IC50 [10]: 0.4 µg/mL; neutralization IC50 [26]: 15 µg/mL; neutralization IC50 [11]: > 50 µg/mL; neutralization IC50 [12]: 4.5 µg/mL; neutralization IC50 [28]: 1.2 µg/mL |
